Paper PMC4159615 (Developmental cell, 2014)

Legend:
[1] = target: T1, Chs5(1-299)/Bch1 exomer complex (S. cerevisiae (yeast), UniProt Q12114 1-299; Q05029 1-724); assay: co-sedimentation
T1 sequence 1: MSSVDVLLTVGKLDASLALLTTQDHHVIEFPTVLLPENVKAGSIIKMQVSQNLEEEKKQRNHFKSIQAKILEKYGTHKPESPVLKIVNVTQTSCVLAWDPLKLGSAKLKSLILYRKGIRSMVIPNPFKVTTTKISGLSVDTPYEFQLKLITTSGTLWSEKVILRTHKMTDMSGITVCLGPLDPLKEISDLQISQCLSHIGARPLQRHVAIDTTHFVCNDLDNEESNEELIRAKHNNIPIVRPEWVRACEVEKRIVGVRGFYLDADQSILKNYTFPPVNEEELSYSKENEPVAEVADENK
T1 sequence 2: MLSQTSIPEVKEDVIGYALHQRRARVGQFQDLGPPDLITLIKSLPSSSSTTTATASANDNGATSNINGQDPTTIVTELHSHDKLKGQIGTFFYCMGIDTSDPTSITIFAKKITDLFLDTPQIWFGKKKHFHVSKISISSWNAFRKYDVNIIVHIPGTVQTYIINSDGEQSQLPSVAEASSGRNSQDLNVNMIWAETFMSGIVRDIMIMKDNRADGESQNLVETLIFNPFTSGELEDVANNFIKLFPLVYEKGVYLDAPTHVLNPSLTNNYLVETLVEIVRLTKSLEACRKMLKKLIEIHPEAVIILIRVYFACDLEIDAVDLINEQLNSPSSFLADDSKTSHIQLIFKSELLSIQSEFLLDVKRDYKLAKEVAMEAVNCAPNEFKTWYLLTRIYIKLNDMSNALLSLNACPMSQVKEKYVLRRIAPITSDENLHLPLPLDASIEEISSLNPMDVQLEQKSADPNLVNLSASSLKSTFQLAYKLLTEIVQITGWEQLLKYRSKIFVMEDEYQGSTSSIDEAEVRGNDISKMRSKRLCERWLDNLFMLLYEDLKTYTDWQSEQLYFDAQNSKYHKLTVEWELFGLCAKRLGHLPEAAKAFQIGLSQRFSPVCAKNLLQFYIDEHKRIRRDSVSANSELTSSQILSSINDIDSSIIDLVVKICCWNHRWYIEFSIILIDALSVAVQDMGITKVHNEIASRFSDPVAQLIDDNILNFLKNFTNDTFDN

Bch1 = target: T2, Bch1 (S. cerevisiae (yeast), UniProt Q05029 1-724); assay: crystal structure
T2 sequence: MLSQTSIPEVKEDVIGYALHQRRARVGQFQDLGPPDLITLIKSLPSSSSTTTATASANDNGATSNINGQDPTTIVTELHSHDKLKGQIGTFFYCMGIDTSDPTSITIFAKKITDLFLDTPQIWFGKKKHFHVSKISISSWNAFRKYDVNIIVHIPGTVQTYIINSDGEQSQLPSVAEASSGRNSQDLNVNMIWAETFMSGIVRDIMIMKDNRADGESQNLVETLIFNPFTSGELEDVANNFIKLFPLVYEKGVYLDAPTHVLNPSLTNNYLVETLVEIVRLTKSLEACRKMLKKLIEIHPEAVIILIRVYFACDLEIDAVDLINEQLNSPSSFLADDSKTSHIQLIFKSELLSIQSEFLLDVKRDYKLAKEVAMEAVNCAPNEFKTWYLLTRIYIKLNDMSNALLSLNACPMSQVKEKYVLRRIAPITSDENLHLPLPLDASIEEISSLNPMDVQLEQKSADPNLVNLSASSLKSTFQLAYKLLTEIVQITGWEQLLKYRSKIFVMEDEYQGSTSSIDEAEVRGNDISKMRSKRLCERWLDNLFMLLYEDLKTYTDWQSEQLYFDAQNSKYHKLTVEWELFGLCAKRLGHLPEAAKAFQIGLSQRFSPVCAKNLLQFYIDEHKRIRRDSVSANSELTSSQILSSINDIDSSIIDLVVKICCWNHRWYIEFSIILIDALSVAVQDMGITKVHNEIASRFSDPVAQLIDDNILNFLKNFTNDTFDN

[2] = target: T1, Chs5(1-299)/Bch1 exomer complex; assay: crystal structure

B1: myristoylated Arf1-S98Y (natural protein, yeast, UniProt P11076 1-181, looked up)
chain: MGLFASKLFSNLFGNKEMRILMVGLDGAGKTTVLYKLKLGEVITTIPTIGFNVETVQYKNISFTVWDVGGQDRIRSLWRHYYRNTEGVIFVVDSNDRYRIGEAREVMQRMLNEDELRNAAWLVFANKQDLPEAMSAAEITEKLGLHSIRNRPWFIQATCATSGEGLYEGLEWLSNSLKNST
modifications: myristoylated
binding result [1]: binds

B2: ΔN17-Arf1-Q71L bound to GMPPNP (domain or fragment, S. cerevisiae (yeast), UniProt P11076 18-181, looked up)
chain: MRILMVGLDGAGKTTVLYKLKLGEVITTIPTIGFNVETVQYKNISFTVWDVGGLDRIRSLWRHYYRNTEGVIFVVDSNDRSRIGEAREVMQRMLNEDELRNAAWLVFANKQDLPEAMSAAEITEKLGLHSIRNRPWFIQATCATSGEGLYEGLEWLSNSLKNST
binding result (Bch1): binds
stoichiometry N [2]: 2
